Source: patent US8003596B2, “P-selectin targeting ligand and compositions thereof” (Astellas Pharma Inc., priority 2003, dated 2011)
Where no end group is shown, it is not given here.

Columns and labels:
human P-selectin/IgG-Fc = target: T1, human P-selectin/IgG-Fc (Homo sapiens, UniProt P16109); assay: Competition assay: displacement of TM11-PO complex from immobilised human P-selectin/IgG-Fc; assay type: binding; details: competition with TM11-PO; free peptide; read-out: IC50 (affinity for P-selectin)
T1 construct: purchased R&D Systems Europe Ltd., Abingdon, United Kingdom
T1 sequence (P16109 with tags, fused parts or gaps limits assumed): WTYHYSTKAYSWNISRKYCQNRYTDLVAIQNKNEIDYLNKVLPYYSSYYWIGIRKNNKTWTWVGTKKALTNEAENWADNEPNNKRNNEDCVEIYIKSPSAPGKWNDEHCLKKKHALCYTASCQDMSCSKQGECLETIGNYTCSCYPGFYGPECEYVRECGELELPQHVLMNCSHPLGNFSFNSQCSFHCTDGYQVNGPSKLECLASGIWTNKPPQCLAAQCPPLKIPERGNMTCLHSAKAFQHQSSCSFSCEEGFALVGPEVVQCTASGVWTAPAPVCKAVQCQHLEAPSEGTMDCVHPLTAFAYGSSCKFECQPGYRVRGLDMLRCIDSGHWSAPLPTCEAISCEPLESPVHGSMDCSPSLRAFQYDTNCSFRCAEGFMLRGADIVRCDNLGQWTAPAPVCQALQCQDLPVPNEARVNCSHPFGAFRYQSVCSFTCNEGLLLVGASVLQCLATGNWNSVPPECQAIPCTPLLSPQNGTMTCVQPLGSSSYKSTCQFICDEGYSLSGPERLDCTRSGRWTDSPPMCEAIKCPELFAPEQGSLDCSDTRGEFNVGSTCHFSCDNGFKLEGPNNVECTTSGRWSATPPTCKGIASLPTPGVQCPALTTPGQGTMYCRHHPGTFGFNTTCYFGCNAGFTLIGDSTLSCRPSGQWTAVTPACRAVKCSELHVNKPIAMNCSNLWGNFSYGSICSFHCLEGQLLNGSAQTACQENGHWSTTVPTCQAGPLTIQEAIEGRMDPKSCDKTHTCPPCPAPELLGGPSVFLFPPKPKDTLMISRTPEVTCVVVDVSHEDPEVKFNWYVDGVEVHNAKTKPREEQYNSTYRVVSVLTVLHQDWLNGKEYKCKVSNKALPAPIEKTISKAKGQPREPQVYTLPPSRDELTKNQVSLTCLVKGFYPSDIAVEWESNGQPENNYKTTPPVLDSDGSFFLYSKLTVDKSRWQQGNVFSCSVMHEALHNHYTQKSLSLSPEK
Method: (§1) TM11-PO, a tetrameric TM11/strepPO complex described by Molenaar et al. (Blood 100: 3570-3577 (2002)), was freshly prepared by incubating streptavidin-peroxidase (Amersham Life Science, Little Chalfont, United Kingdom) (strep-PO; 8.4 μl, 2.0 μM) and biotin-CDVEWVDVSSLEWDLPC (SEQ ID NO: 2; synthesized by Dr. Vander Zee, Department of Immunology, University of Utrecht, Utrecht, the Netherlands) (TM11-biotin; 1.5 μl 190 mM) for 2 hours at room temperature in assay buffer (20 mM HEPES, 150 mM NaCl, 1 mM CaCl2, pH 7.4). For competition studies, a 96 wells microtiter plate (high binding, flat bottom, Costar, Corning, U.S.A) was coated overnight at 4° C. with 10 μg/ml goat anti-human IgG (Sigma-Aldrich, Zwijndrecht, the Netherlands) in coating buffer (50 mM NaHCO3, pH 9.6). Subsequently, wells were washed with assay buffer and incubated for 1 hour at 37° C. with blocking buffer (3% BSA in assay buffer). After washing with assay buffer the wells were incubated for 2 hours at 37° C. with human P-selectin/IgG-Fc (R&D Systems Europe Ltd., Abingdon, United Kingdom) (0.3 μg/ml). Subsequently, wells were washed with assay buffer and incubated for 1 hour at 4° C. with the TM11-PO complex. The wells were washed six times with washing buffer (0.1% Tween 20 in assay buffer). […] The reaction was halted by addition of 2 M H2SO4 and the absorbance was measured at 450 nm.

[1] = target: T2, human P-selectin/IgG-Fc (R&D Systems) (human, UniProt P16109 42-771); assay: competition ELISA against TM11-PO on captured human P-selectin/IgG-Fc
T2 construct: It was captured on plates coated with goat anti-human IgG; not shown: IgG Fc; it was captured by goat anti-human IgG
T2 sequence (looked up): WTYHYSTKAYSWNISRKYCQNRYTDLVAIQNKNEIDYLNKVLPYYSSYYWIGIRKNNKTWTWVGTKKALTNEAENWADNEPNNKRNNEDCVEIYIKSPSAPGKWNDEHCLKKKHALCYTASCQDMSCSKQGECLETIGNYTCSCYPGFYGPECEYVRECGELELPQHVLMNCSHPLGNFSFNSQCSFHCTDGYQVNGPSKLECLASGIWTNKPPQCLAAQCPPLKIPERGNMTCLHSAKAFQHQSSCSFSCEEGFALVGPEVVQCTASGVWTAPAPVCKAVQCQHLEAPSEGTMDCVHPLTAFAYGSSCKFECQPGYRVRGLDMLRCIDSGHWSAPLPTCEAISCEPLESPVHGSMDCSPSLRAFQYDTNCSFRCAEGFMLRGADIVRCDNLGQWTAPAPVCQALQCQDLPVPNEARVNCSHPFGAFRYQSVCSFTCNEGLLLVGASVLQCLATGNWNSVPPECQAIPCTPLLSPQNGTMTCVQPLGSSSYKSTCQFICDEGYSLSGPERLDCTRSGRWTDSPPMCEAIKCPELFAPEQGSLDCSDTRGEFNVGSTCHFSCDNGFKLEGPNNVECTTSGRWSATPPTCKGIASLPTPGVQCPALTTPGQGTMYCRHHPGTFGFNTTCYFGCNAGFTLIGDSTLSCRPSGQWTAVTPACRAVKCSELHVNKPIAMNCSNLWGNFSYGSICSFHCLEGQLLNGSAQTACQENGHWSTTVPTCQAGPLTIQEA
Method: as §1, with “The affinity of the liposomal drug delivery system prepared in example 2 was evaluated using a competition assay. TM11-PO,” for “TM11-PO,”, “biotin-[…]” for “biotin-CDVEWVDVSSLEWDLPC”, “CaCl_2,” for “CaCl2,”, “NaHCO_3,” for “NaHCO3,”, “complex.” for “complex. The wells were washed six times with washing buffer (0.1% Tween 20 in assay buffer).”, “H_2SO_4” for “H2SO4”

[2] = target: T3, human P-selectin/IgG-Fc (R&D Systems) (human), P16109; assay: as above
T3 chain: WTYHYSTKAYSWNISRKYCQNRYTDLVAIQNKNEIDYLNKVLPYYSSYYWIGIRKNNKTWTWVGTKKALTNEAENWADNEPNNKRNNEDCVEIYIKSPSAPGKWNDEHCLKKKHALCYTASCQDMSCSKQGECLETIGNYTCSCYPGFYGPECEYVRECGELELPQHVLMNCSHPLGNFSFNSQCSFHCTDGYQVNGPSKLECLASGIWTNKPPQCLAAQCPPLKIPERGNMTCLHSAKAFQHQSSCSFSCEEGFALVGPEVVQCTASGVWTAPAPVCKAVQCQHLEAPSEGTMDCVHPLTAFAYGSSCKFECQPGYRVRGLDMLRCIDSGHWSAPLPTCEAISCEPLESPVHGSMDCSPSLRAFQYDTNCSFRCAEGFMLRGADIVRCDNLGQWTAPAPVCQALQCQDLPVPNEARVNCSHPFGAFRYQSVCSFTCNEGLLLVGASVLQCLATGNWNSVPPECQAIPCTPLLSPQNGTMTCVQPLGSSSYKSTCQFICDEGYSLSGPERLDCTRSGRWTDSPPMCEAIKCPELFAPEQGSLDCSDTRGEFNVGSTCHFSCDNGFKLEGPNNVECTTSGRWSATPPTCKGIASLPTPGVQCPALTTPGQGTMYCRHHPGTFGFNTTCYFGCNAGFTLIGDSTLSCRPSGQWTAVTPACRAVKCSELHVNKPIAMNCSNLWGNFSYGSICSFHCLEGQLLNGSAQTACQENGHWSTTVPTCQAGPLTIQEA

[3] = target: T4, human P-selectin on CHO cells stably transfected with human P-selectin (CHO-P cells) (human, UniProt P16109 42-830); assay: cell-based or functional assay
T4 sequence (looked up): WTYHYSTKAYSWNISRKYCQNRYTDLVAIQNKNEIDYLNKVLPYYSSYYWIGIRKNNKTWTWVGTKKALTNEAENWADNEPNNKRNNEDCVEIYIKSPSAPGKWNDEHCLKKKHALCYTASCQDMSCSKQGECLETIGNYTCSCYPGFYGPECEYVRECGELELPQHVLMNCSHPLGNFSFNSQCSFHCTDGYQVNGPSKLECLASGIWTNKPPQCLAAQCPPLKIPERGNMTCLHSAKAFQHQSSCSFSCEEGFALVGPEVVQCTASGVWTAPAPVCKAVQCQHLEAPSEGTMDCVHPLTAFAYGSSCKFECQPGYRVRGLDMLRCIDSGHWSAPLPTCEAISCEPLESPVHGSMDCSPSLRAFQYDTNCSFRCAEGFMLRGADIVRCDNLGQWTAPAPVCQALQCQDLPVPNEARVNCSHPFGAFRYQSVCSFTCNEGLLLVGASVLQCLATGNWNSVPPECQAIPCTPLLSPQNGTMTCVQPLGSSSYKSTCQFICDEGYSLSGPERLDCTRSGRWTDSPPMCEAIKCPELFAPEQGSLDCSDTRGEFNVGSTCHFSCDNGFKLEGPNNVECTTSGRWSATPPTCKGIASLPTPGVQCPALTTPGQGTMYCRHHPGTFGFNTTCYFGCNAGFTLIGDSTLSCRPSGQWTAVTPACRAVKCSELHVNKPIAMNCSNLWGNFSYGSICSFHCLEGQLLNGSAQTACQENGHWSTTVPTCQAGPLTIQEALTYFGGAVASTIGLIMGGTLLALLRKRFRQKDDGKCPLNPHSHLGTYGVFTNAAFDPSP

H-DVEWVDVSY-OH [Pstar, H2N-DVEWVDVSY-COOH]
IC50 (human P-selectin/IgG-Fc): 7 µM

B1: P100 liposomes: liposomes carrying 100 DSPE-PEG3400-(125I)-Pstar conjugates per liposome (other)
peptide: DVEWVDVSY
modifications: not fully specified; also: 125I label (ICl method)
notes: About 70 nm EYPC/cholesterol liposome; The peptide-PEG-lipid conjugate is anchored in its surface together with DSPE-PEG2000 (5 mole % in total); also called LP100
IC50 [1]: 0.00078 µM

DVEWVDVSY (modifications not checked) [human P-selectin binding peptide H2N-…-COOH (Pstar)]
IC50 [2]: 7 µM

B2: P500 liposomes: liposomes carrying 500 DSPE-PEG3400-(125I)-Pstar conjugates per liposome (other)
peptide: DVEWVDVSY
modifications: not fully specified; also: 125I label (ICl method)
notes: About 70 nm EYPC/cholesterol liposome; The peptide-PEG-lipid conjugate is anchored in its surface together with DSPE-PEG2000 (5 mole % in total); also called LP500
IC50 [1]: 0.00034 µM
relative transfection (glucocorticoid responsive element-driven Firefly luciferase, corrected by Renilla luciferase) in CHO-P cells [3]: 5 fold
